Article PMC12416549 (2024)

T1: TNFR1 (Homo sapiens, UniProt P19438)
T1 chain: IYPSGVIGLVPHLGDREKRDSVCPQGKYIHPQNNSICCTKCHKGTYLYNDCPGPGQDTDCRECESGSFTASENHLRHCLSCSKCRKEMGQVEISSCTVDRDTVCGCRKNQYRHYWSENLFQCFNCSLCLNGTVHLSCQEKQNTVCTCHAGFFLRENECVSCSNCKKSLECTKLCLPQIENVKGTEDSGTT


Target: T1, TNFR1
Test: yeast display SC50

Row | apparent Kd (screen) | Binder
1 | 1.05 nM | S59K (designed binder) SMEEEVEKAAKEYEKKKKEAIEKHLEKLKAKDKEAAERFLKELEEAAKEYAKDEAKTMKEEEAKRRAKKYKEKVLLSELSEEEQKEIKEAEEKLVRTILKYVEEAAK
2 | 0.653 nM | E62L (designed binder) SMEEEVEKAAKEYEKKKKEAIEKHLEKLKAKDKEAAERFLKELEEAAKEYAKDEAKTMSEELAKRRAKKYKEKVLLSELSEEEQKEIKEAEEKLVRTILKYVEEAAK
3 | 2.05 nM | E83Y (designed binder) SMEEEVEKAAKEYEKKKKEAIEKHLEKLKAKDKEAAERFLKELEEAAKEYAKDEAKTMSEEEAKRRAKKYKEKVLLSELSEEYQKEIKEAEEKLVRTILKYVEEAAK
4 | 0.446 nM | Y101R (designed binder) SMEEEVEKAAKEYEKKKKEAIEKHLEKLKAKDKEAAERFLKELEEAAKEYAKDEAKTMSEEEAKRRAKKYKEKVLLSELSEEEQKEIKEAEEKLVRTILKRVEEAAK
5 | 0.49 nM | V102P (designed binder) SMEEEVEKAAKEYEKKKKEAIEKHLEKLKAKDKEAAERFLKELEEAAKEYAKDEAKTMSEEEAKRRAKKYKEKVLLSELSEEEQKEIKEAEEKLVRTILKYPEEAAK
6 | 1.54 nM | Y50N (designed binder) SMEEEVEKAAKEYEKKKKEAIEKHLEKLKAKDKEAAERFLKELEEAAKENAKDEAKTMSEEEAKRRAKKYKEKVLLSELSEEEQKEIKEAEEKLVRTILKYVEEAAK
7 | 0.593 nM | E82A (designed binder) SMEEEVEKAAKEYEKKKKEAIEKHLEKLKAKDKEAAERFLKELEEAAKEYAKDEAKTMSEEEAKRRAKKYKEKVLLSELSEAEQKEIKEAEEKLVRTILKYVEEAAK
8 | 1.54 nM | A67K (designed binder) SMEEEVEKAAKEYEKKKKEAIEKHLEKLKAKDKEAAERFLKELEEAAKEYAKDEAKTMSEEEAKRRKKKYKEKVLLSELSEEEQKEIKEAEEKLVRTILKYVEEAAK
9 | 1.69 nM | E89W (designed binder) SMEEEVEKAAKEYEKKKKEAIEKHLEKLKAKDKEAAERFLKELEEAAKEYAKDEAKTMSEEEAKRRAKKYKEKVLLSELSEEEQKEIKWAEEKLVRTILKYVEEAAK
10 | 0.956 nM | E60A (designed binder) SMEEEVEKAAKEYEKKKKEAIEKHLEKLKAKDKEAAERFLKELEEAAKEYAKDEAKTMSAEEAKRRAKKYKEKVLLSELSEEEQKEIKEAEEKLVRTILKYVEEAAK
11 | 0.49 nM | V102H (designed binder) SMEEEVEKAAKEYEKKKKEAIEKHLEKLKAKDKEAAERFLKELEEAAKEYAKDEAKTMSEEEAKRRAKKYKEKVLLSELSEEEQKEIKEAEEKLVRTILKYHEEAAK
12 | 0.49 nM | E81P (designed binder) SMEEEVEKAAKEYEKKKKEAIEKHLEKLKAKDKEAAERFLKELEEAAKEYAKDEAKTMSEEEAKRRAKKYKEKVLLSELSPEEQKEIKEAEEKLVRTILKYVEEAAK
13 | 0.49 nM | L75M (designed binder) SMEEEVEKAAKEYEKKKKEAIEKHLEKLKAKDKEAAERFLKELEEAAKEYAKDEAKTMSEEEAKRRAKKYKEKVMLSELSEEEQKEIKEAEEKLVRTILKYVEEAAK
14 | 9.41 nM | A63L (designed binder) SMEEEVEKAAKEYEKKKKEAIEKHLEKLKAKDKEAAERFLKELEEAAKEYAKDEAKTMSEEELKRRAKKYKEKVLLSELSEEEQKEIKEAEEKLVRTILKYVEEAAK
15 | 3 nM | I87Q (designed binder) SMEEEVEKAAKEYEKKKKEAIEKHLEKLKAKDKEAAERFLKELEEAAKEYAKDEAKTMSEEEAKRRAKKYKEKVLLSELSEEEQKEQKEAEEKLVRTILKYVEEAAK
16 | 0.49 nM | A67G (designed binder) SMEEEVEKAAKEYEKKKKEAIEKHLEKLKAKDKEAAERFLKELEEAAKEYAKDEAKTMSEEEAKRRGKKYKEKVLLSELSEEEQKEIKEAEEKLVRTILKYVEEAAK
17 | 1.69 nM | K100L (designed binder) SMEEEVEKAAKEYEKKKKEAIEKHLEKLKAKDKEAAERFLKELEEAAKEYAKDEAKTMSEEEAKRRAKKYKEKVLLSELSEEEQKEIKEAEEKLVRTILLYVEEAAK
18 | 2.05 nM | A51G (designed binder) SMEEEVEKAAKEYEKKKKEAIEKHLEKLKAKDKEAAERFLKELEEAAKEYGKDEAKTMSEEEAKRRAKKYKEKVLLSELSEEEQKEIKEAEEKLVRTILKYVEEAAK

The remaining lines, values behind:

Row | Binder | apparent Kd (screen)
19 | L43I (designed binder) SMEEEVEKAAKEYEKKKKEAIEKHLEKLKAKDKEAAERFLKEIEEAAKEYAKDEAKTMSEEEAKRRAKKYKEKVLLSELSEEEQKEIKEAEEKLVRTILKYVEEAAK | 1.4 nM
20 | E22G (designed binder) SMEEEVEKAAKEYEKKKKEAIGKHLEKLKAKDKEAAERFLKELEEAAKEYAKDEAKTMSEEEAKRRAKKYKEKVLLSELSEEEQKEIKEAEEKLVRTILKYVEEAAK | 1.05 nM
21 | K17A (designed binder) SMEEEVEKAAKEYEKKAKEAIEKHLEKLKAKDKEAAERFLKELEEAAKEYAKDEAKTMSEEEAKRRAKKYKEKVLLSELSEEEQKEIKEAEEKLVRTILKYVEEAAK | 1.86 nM
22 | K33E (designed binder) SMEEEVEKAAKEYEKKKKEAIEKHLEKLKAKDEEAAERFLKELEEAAKEYAKDEAKTMSEEEAKRRAKKYKEKVLLSELSEEEQKEIKEAEEKLVRTILKYVEEAAK | 0.539 nM
23 | L43W (designed binder) SMEEEVEKAAKEYEKKKKEAIEKHLEKLKAKDKEAAERFLKEWEEAAKEYAKDEAKTMSEEEAKRRAKKYKEKVLLSELSEEEQKEIKEAEEKLVRTILKYVEEAAK | 2.73 nM
24 | H24T (designed binder) SMEEEVEKAAKEYEKKKKEAIEKTLEKLKAKDKEAAERFLKELEEAAKEYAKDEAKTMSEEEAKRRAKKYKEKVLLSELSEEEQKEIKEAEEKLVRTILKYVEEAAK | 1.16 nM
25 | A20F (designed binder) SMEEEVEKAAKEYEKKKKEFIEKHLEKLKAKDKEAAERFLKELEEAAKEYAKDEAKTMSEEEAKRRAKKYKEKVLLSELSEEEQKEIKEAEEKLVRTILKYVEEAAK | 0.446 nM
26 | F39S (designed binder) SMEEEVEKAAKEYEKKKKEAIEKHLEKLKAKDKEAAERSLKELEEAAKEYAKDEAKTMSEEEAKRRAKKYKEKVLLSELSEEEQKEIKEAEEKLVRTILKYVEEAAK | 7.07 nM
27 | E12T (designed binder) SMEEEVEKAAKTYEKKKKEAIEKHLEKLKAKDKEAAERFLKELEEAAKEYAKDEAKTMSEEEAKRRAKKYKEKVLLSELSEEEQKEIKEAEEKLVRTILKYVEEAAK | 1.05 nM
28 | K15R (designed binder) SMEEEVEKAAKEYERKKKEAIEKHLEKLKAKDKEAAERFLKELEEAAKEYAKDEAKTMSEEEAKRRAKKYKEKVLLSELSEEEQKEIKEAEEKLVRTILKYVEEAAK | 0.593 nM
29 | A46S (designed binder) SMEEEVEKAAKEYEKKKKEAIEKHLEKLKAKDKEAAERFLKELEESAKEYAKDEAKTMSEEEAKRRAKKYKEKVLLSELSEEEQKEIKEAEEKLVRTILKYVEEAAK | 0.49 nM
30 | K11M (designed binder) SMEEEVEKAAMEYEKKKKEAIEKHLEKLKAKDKEAAERFLKELEEAAKEYAKDEAKTMSEEEAKRRAKKYKEKVLLSELSEEEQKEIKEAEEKLVRTILKYVEEAAK | 0.446 nM
31 | F39I (designed binder) SMEEEVEKAAKEYEKKKKEAIEKHLEKLKAKDKEAAERILKELEEAAKEYAKDEAKTMSEEEAKRRAKKYKEKVLLSELSEEEQKEIKEAEEKLVRTILKYVEEAAK | 3.99 nM
32 | A36W (designed binder) SMEEEVEKAAKEYEKKKKEAIEKHLEKLKAKDKEAWERFLKELEEAAKEYAKDEAKTMSEEEAKRRAKKYKEKVLLSELSEEEQKEIKEAEEKLVRTILKYVEEAAK | 0.446 nM
33 | S1M (designed binder) MMEEEVEKAAKEYEKKKKEAIEKHLEKLKAKDKEAAERFLKELEEAAKEYAKDEAKTMSEEEAKRRAKKYKEKVLLSELSEEEQKEIKEAEEKLVRTILKYVEEAAK | 2.25 nM
34 | K29C (designed binder) SMEEEVEKAAKEYEKKKKEAIEKHLEKLCAKDKEAAERFLKELEEAAKEYAKDEAKTMSEEEAKRRAKKYKEKVLLSELSEEEQKEIKEAEEKLVRTILKYVEEAAK | 1.4 nM
35 | S1D (designed binder) DMEEEVEKAAKEYEKKKKEAIEKHLEKLKAKDKEAAERFLKELEEAAKEYAKDEAKTMSEEEAKRRAKKYKEKVLLSELSEEEQKEIKEAEEKLVRTILKYVEEAAK | 0.446 nM
